Substrate: CC(=O)C(=O)O
Assay: acetolactate to acetoin, creatine/naphthol colorimetric A525, Michaelis-Menten
Type: biochemical, Oryza sativa
Settings: pH 7.5 phosphate, 10 mM MgCl2, 20 uM FAD, 1 mM thiamine pyrophosphate, 37 °C, no herbicide
Description: acetolactate to acetoin, creatine/naphthol colorimetric A525, Michaelis-Menten on AHAS-WT (rice acetohydroxyacid synthase)

| Protein | Km [mM] | kcat [s⁻¹] | kcat/Km [M⁻¹ s⁻¹] |
| --- | --- | --- | --- |
| AHAS-WT (rice acetohydroxyacid synthase) (Oryza sativa Japonica Group; DEL548-548) (protein, mature AHAS, N-terminal 59-residue signal (transit) peptide removed; pGEX4T2, E. coli Rosetta; GST tag cut by thrombin; 64 kDa; WT mainly dimer (128 kDa), small tetramer peak (256 kDa); deletion mutant dimer only) TPLRPWGPAEPRKGADILVEALERCGVSDVFAYPGGASMEIHQALTRSPVITNHLFRHEQGEAFAASGYARASGRVGVCVATSGPGATNLVSALADALLDSVPMVAITGQVPRRMIGTDAFQETPIVEVTRSITKHNYLVLDVEDIPRVIQEAFFLASSGRPGPVLVDIPKDIQQQMAVPVWDTSMNLPGYIARLPKPPATELLEQVLRLVGESRRPILYVGGGCSASGDELRWFVELTGIPVTTTLMGLGNFPSDDPLSLRMLGMHGTVYANYAVDKADLLLAFGVRFDDRVTGKIEAFASRAKIVHIDIDPAEIGKNKQPHVSICADVKLALQGLNALLQQSTTKTSSDFSAWHNELDQQKREFPLGYKTFGEEIPPQYAIQVLDELTKGEAIIATGVGQHQMWAAQYYTYKRPRQWLSSAGLGAMGFGLPAAAGASVANPGVTVVDIDGDGSFLMNIQELALIRIENLPVKVMVLNNQHLGMVVQEDRFYKANRAHTYLGNPECESEIYPDFVTIAKGFNIPAVRVTKKSEVRAAIKKMLETPGPYLLDIIVPHQEHVLPMIPSGGAFKDMILDGDGRTVY | 9.4 ± 0.4 | 6.6 ± 0.5 | 700 ± 50 |
| AHAS-WT (rice acetohydroxyacid synthase) (Oryza sativa Japonica Group) (protein, mature AHAS, N-terminal 59-residue signal (transit) peptide removed; pGEX4T2, E. coli Rosetta; GST tag cut by thrombin; 64 kDa; WT mainly dimer (128 kDa), small tetramer peak (256 kDa); deletion mutant dimer only) TPLRPWGPAEPRKGADILVEALERCGVSDVFAYPGGASMEIHQALTRSPVITNHLFRHEQGEAFAASGYARASGRVGVCVATSGPGATNLVSALADALLDSVPMVAITGQVPRRMIGTDAFQETPIVEVTRSITKHNYLVLDVEDIPRVIQEAFFLASSGRPGPVLVDIPKDIQQQMAVPVWDTSMNLPGYIARLPKPPATELLEQVLRLVGESRRPILYVGGGCSASGDELRWFVELTGIPVTTTLMGLGNFPSDDPLSLRMLGMHGTVYANYAVDKADLLLAFGVRFDDRVTGKIEAFASRAKIVHIDIDPAEIGKNKQPHVSICADVKLALQGLNALLQQSTTKTSSDFSAWHNELDQQKREFPLGYKTFGEEIPPQYAIQVLDELTKGEAIIATGVGQHQMWAAQYYTYKRPRQWLSSAGLGAMGFGLPAAAGASVANPGVTVVDIDGDGSFLMNIQELALIRIENLPVKVMVLNNQHLGMVVQWEDRFYKANRAHTYLGNPECESEIYPDFVTIAKGFNIPAVRVTKKSEVRAAIKKMLETPGPYLLDIIVPHQEHVLPMIPSGGAFKDMILDGDGRTVY | 9.2 ± 0.4 | 6.7 ± 0.3 | 710 ± 30 |

From publication PMC7072996, “Engineering Herbicide-Tolerance Rice Expressing an Acetohydroxyacid Synthase with a Single Amino Acid Deletion” (International Journal of Molecular Sciences, 2020)
